T1: mitochondrial bound HK-I (Rattus norvegicus, UniProt P05708)
T1 construct: from tissue; host or cells: rat brain mitochondria
T1 sequence (P05708 1-918): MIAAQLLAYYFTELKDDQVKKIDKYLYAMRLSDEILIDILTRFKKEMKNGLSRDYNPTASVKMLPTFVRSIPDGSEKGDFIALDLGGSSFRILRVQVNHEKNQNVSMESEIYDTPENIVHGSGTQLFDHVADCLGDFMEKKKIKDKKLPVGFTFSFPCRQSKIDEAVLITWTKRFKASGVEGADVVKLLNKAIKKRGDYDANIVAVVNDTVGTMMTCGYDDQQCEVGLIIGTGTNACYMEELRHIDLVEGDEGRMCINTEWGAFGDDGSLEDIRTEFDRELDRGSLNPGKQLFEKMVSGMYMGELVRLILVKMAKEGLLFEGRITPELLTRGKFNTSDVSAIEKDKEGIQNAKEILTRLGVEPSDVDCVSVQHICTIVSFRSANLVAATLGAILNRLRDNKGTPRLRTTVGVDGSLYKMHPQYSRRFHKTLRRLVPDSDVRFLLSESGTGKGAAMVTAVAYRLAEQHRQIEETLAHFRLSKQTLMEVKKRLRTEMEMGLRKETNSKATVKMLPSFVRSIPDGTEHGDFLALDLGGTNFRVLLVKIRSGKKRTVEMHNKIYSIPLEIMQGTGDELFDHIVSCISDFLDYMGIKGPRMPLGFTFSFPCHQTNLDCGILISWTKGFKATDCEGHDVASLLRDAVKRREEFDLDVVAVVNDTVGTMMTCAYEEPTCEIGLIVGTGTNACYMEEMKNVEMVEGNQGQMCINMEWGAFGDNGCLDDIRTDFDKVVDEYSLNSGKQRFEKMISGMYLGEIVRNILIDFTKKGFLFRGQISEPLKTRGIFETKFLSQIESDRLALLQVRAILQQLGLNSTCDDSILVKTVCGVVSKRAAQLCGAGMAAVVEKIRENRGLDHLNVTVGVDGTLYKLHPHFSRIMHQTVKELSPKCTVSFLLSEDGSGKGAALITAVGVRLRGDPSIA

B1: HK-I: Hexokinase-I, anti-apoptotic mitochondrial protein that binds to VDAC; purified from rat brain or over-expressed recombinant (protein)
chain: T1 sequence (P05708 1-918)

Tests used:
mitochondrial bound HK-I = biological target: T1, mitochondrial bound HK-I; test: Detachment of mitochondria-bound HK-I; type: biochemical; details: peptide N
Bcl2 = biological target: T2, Bcl2 (Homo sapiens, UniProt P10415); details: expression of peptide N in cells overexpressing Bcl2-GFP; Abu Hamad et al., 2009; cited from earlier work
T2 construct: GFP; expressed in transfected cells

E72Q-mVDAC1 = biological target: T3, E72Q-mVDAC1 (Mus musculus, UniProt Q60932, E72Q); test: VDAC channel recording in planar lipid bilayer (PLB); type: biochemical; details: HK-I 28.6 mU/ml, 5 min; voltage step 0 to −20 mV; 0.5 M NaCl
T3 construct: made in house; host or cells: yeast (purified from mitochondria of yeast expressing mutated mVDAC1)
Procedure: (§1) Native and mutated mVDAC1 were extracted with lauryldimethylamine N-oxide (LDAO) from mitochondria isolated from yeast expressing various VDACs, and purified by chromatography on hydroxyapatite followed by carboxymethyl (CM)-cellulose where LDAO was replaced by β-OG (β-octylglucoside).
(§2) Reconstitution of purified VDAC into a planar lipid bilayer (PLB) multi-channel current recording and data analyses were carried as follows. Briefly, PLB were prepared from soybean asolactin dissolved in n-decane (50 mg/ml) in a chamber containing 10 mM HEPES/KOH pH 7.4 and 0.5 or 1M NaCl (cis/trans). Only PLBs with a resistance greater than 100 GΩ were used. Purified VDAC (about 1 ng) was added to the chamber defined as the cis side. After one or a few channels inserted into the PLB, excess protein was removed by perfusion of the cis chamber with 20 volumes of a solution (with the same composition as before perfusion), in order to prevent further protein incorporation. Currents were recorded under voltage-clamp mode using a Bilayer Clamp amplifier (Warner Instrument, USA). The currents were measured with respect to the trans side of the membrane (ground). The currents were low-pass filtered at 1 kHz, using a Bessal filter (Frequency Devices, USA) and digitized on-line using a Digidata 1200 interface board and pCLAMP 6 software (Axon Instruments). Sigma Plot 2000 scientific software was used for data analyses. Experiments were performed at 23-25° C.
(§3) FIG. 1A: Purified recombinant native or E72Q-mutated mVDAC1 was reconstituted into a PLB (planar lipid bilayer) in symmetrical solutions of 0.5 M NaCl. Currents through VDAC1 channel in response to a voltage step from zero to −20 mV were recorded before and 5 min after the addition of HK-I (28.6 mU/ml). The dashed lines indicate the zero-current level. […] FIG. 1C: Cytochrome c release was assayed, using a monoclonal anti-cytochrome c antibody, in the absence or the presence of HK-I (1 U/ml), chymotrypsin-treated HK-I (1 U/ml) or CsA (10 micro M).
(§4) RuR, known to interact with several Ca^2+ binding proteins and to inhibit Ca^2+ transport in mitochondria, inhibited channel activity of native but not of E72Q-mutated VDAC1 (FIG. 5E). Purified recombinant native and E72Q-mVDAC1 variant were reconstituted into a planar lipid bilayer (PLB) and the currents produced in response to voltages stepped from a holding potential of 0 mV to −20 mV were recorded. […] The level of inhibition calculated from […] different experiments was 89.2±2.8% (mean±SD, n=9). In contrast, the channel activity of E72Q-mVDAC1 was not inhibited by RuR in all ten experiments.

[1] = biological target: T4, recombinant native mVDAC1 (Mus musculus, UniProt Q60932); test: as above; type: biochemical; details: HK-I 28.6 mU/ml, 5 min; voltage step 0 to −20 mV; 0.5 M NaCl
T4 construct: made in house; host or cells: yeast (purified from mitochondria of yeast expressing mVDAC1)
Procedure: as §1, §2, §3, §4

U937 cells = test: HK-I over-expression protection against apoptotic cell death in double-transfected cells; type: cell-based, human; details: staurosporine (STS)
Procedure: U937 cells were transfected with pcDNA3.1-HisA or pcDNA3.1-HisA-HK-I (neomycin resistance; provided by Dr. J. E. Wilson, University of Michigan) by electroporation, and grown in complete RPMI 1640 with neomycin ([…]). After 12 days, the selected cells were transfected with pEGFP, pEGFP-mVDAC1 or pEGFP-E72Q-mVDAC1 and were grown in the presence of neomycin ([…]). The viability of double-transfected cells was analyzed during 48 to 76 hr.
The effect of HK-I over-expression on apoptotic cell death of the GFP-tagged version of native and E72Q-mVDAC1 over-expressing cells was examined.
Since VDAC1 overexpression induces cell death, U937 cells (FIG. 4A, 4B) or T-Rex™ 293 human embryonic kidney cells (FIG. 4B) were first transformed to stably over-express HK-I and then transfected with native, E65Q, E72Q, K73L, D77N, N75A, or G67A mutated mVDAC1-GFP. […] This β-loop includes amino acid residues T64 to about N78.

[2] = system: permeability transition pore (PTP); test: PTP opening monitored by Ca2+ accumulation and mitochondrial swelling; type: biochemical, rat; details: Ca2+ accumulation and swelling of energized mitochondria
Procedure: Ca^2+ uptake by freshly prepared rat liver mitochondria (0.5 mg/ml) was assayed for 1 to 20 minutes at 30° C. in the presence of 225 mM mannitol, 75 mM sucrose, 120 μM CaCl2 (containing 3×10^4 cpm/nmol [^45Ca^2+]), 5 mM HEPES/KOH, 5 mM succinate and 0.1 mM Pi, pH 7.0. Uptake of ^45Ca^2+ was terminated by rapid Millipore filtration followed by a wash with 5 ml of 150 mM KCl.
Ca^2+-induced mitochondria large amplitude swelling was assayed in freshly-prepared mitochondria under the same conditions as for Ca^2+ accumulation, except that the temperature was 24° C. Cyclosporine A (CsA)-sensitive mitochondrial swelling was initiated upon addition of Ca^2+ (0.2 mM) to the sample. Absorbance changes at 520 nm were monitored every 15-20 sec with an Ultraspec 2100 spectrophotometer.
The failure of non-binding species of HK, such as yeast HK, or trypsin- or chymotrypsin-treated HK-I (FIG. 2D) to prevent PTP opening, confirmed the specificity of the HK-I effect, and of the requirement of the HK-I N-terminal region for its interaction with VDAC.
Mitochondrial swelling was assayed in the absence (control ●) or the presence of HK-I (gray ●) and in presence HK-I pre-incubated with peptide LP1. Mitochondrial swelling was assayed as in FIG. 2 in the absence and the presence of peptide LP1 (0.1 mM or 0.3 mM), brain HK-I (0.25 U/ml) or with HK-I pre-incubated for 10 min with LP1. […]

mitochondria = test: Release of cytochrome c from mitochondria; type: biochemical, rat; details: HK-I 1 U/ml; Western blot
Procedure: Mitochondria (0.5 mg/ml) were incubated with or without 1 U/ml of HK-I for 20 min in a solution containing 150 mM KCl, 25 mM NaHCO3, 5 mM succinate, 1 mM MgCl2, 3 mM KH2PO4, 20 mM HEPES, pH 7.4. Swelling was monitored after the addition of 200 μM Ca^2+. Following complete swelling, the samples were centrifuged and mitochondrial pellets (25 μg) or supernatant (40 μl) were subjected to SDS-PAGE and Western blot analyses using monoclonal anti-cytochrome C antibodies.
as §3
The effects of HK-I are similar to those of the well-known inhibitor of PTP, cyclosporine A (CsA) (FIGS. 1C and 2B).

T4 sequence (Q60932 14-296 limits assumed): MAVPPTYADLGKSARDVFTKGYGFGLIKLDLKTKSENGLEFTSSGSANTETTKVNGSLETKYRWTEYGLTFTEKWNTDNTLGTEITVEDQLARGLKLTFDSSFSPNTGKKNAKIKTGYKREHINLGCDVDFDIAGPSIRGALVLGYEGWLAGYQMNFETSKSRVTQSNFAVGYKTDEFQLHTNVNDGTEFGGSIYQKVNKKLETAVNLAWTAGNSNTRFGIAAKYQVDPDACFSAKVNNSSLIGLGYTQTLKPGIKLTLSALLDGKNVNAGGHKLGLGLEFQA
T2 sequence (P10415 whole entry, species assumed): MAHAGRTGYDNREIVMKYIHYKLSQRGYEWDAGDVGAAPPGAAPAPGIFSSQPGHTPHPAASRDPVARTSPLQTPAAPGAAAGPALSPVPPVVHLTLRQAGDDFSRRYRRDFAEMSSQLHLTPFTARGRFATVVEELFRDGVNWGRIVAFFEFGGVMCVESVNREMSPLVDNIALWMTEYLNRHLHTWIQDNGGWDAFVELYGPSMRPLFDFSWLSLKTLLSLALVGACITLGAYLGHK
T3 sequence (Q60932 14-296 E72Q limits assumed): as the sequence (Q60932 14-296 limits assumed) above, with E59Q counted along it

Molecule	detachment or prevention of HK-1 binding to the mitochondria (mitochondrial bound HK-I)	effect on anti-apoptotic effect of Bcl2 against STS-induced apoptosis (Bcl2)	effect of HK-I on VDAC1 channel (E72Q-mVDAC1)	effect of HK-I on VDAC1 channel [1]	protection by HK-I over-expression against STS-induced apoptosis (U937 cells)	prevention of PTP opening [2]	release of cytochrome c from mitochondria (mitochondria)
MAVPPTYADLGKSARDVFTKGYGFGL [Peptide N, 26 amino acid peptide derived from the N-terminal cytosolic segment of VDAC1, amino acids 1-26]	Detachment or prevention of HK-1 binding to the mitochondria was also demonstrated	reversed the anti-apoptotic effect of BCl2	–	–	–	–	–
B1	–	–	able to close native VDAC1 but not mutated E72Q-VDAC1	induces its closure	protects against apoptosis induced by STS	inhibited PTP opening	prevented the release of cytochrome c from mitochondria

Reference: patent US8648045B2, “VDAC1 compositions and methods of use thereof for regulating apoptosis” (Ben Gurion University of the Negev Research and Development …, priority 2005, dated 2014)
